The term Km denotes the substrate concentration at which the rate is half of its maximum.

Data set [1] deals with T1, propionyl-CoA transferase from Ralstonia eutropha (PCTRe), wild type, SEQ ID NO: 12 (Cupriavidus necator, UniProt Q0K874).
T1 sequence (Q0K874 1-542): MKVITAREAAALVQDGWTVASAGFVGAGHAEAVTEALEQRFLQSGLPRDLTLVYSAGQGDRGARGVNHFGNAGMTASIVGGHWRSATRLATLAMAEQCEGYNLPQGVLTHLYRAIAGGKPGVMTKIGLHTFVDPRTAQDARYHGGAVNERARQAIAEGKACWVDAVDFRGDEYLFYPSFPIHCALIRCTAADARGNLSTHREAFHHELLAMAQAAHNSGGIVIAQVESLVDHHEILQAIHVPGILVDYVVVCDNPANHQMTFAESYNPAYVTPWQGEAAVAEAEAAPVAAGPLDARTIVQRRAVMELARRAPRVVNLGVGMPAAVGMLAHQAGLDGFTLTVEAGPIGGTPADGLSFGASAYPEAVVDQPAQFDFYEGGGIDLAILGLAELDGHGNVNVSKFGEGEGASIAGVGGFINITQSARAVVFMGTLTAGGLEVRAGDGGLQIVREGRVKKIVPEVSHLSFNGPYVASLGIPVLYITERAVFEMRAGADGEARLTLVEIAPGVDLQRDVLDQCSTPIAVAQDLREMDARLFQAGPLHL
Particulars: 37° C., pH 7.5, 2 mM acetyl-CoA, 10-800 mM glycolate; n=3.

The target of data set [2] is T2, malonyl-CoA reductase from Chloroflexus aurantiacus (MCRCa), SEQ ID NO: 8 (Chloroflexus aurantiacus, UniProt Q6QQP7).
T2 sequence (Q6QQP7 1-1220): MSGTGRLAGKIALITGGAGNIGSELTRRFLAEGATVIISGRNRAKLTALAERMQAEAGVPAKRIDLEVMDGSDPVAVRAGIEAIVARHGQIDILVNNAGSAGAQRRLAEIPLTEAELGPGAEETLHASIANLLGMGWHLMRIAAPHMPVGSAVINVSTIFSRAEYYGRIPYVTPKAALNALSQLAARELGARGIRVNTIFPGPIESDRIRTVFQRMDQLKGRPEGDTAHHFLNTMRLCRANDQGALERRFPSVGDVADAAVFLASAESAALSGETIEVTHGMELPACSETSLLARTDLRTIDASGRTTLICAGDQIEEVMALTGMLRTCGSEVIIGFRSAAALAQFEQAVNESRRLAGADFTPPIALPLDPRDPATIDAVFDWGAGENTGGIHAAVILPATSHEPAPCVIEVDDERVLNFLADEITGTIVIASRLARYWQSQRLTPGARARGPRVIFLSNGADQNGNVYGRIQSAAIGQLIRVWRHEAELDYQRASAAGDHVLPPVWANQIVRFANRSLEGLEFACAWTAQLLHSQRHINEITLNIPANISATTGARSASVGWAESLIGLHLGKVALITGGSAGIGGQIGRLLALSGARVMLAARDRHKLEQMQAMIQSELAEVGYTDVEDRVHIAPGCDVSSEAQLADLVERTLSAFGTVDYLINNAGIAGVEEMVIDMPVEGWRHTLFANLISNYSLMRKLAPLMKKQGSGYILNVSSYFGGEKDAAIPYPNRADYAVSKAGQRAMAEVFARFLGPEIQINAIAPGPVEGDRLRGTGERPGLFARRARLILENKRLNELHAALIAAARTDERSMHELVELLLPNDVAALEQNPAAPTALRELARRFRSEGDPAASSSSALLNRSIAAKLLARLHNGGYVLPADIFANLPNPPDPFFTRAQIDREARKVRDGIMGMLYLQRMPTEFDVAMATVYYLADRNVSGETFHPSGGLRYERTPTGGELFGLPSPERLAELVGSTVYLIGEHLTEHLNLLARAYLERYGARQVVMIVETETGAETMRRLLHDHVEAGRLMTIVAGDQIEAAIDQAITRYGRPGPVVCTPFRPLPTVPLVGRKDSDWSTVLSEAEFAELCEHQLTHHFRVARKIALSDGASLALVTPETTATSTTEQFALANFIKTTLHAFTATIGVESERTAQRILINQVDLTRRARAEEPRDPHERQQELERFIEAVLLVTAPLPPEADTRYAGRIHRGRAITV
The settings on record: read-out: apparent Km value for malonyl-CoA; Hügler et al., 2002; cited from earlier work.

Data set [3] concerns tartronyl-CoA. The experiment in a line: malonyl-CoA reductase spectrophotometric assay, NADPH oxidation at 365 nm, tartronyl-CoA into glycerate (reactions 4# and 5). Particulars: 0.25 mM tartronyl-CoA, 37° C. It counts as biochemical. The procedure:
The kinetics of the MCRCa enzyme for enzymatically converting the substrate tartonyl-CoA into glycerate (via reactions 4# and 5 both catalyzed by MCRCa) were determined spectrophotometrically at 365 nm following the oxidation of NADPH. Per molecule tartronyl-CoA, two molecules of NADPH are oxidized by MCRCa (a first in reaction 4# and a second in reaction 5) The measurements were carried out at 37° C. in a total reaction volume of 200 μL containing 100 mM MOPS buffer (with 5 mM MgCl2, pH 7.5) with an initial NADPH concentration of 0.4 mM NADPH and 23 μg MCRCa.
An alternative enzyme for catalyzing the conversion of tartonyl-CoA into glycerate (via reactions 4# and 5) is the MCR from Erythrobacter sp. NAP1 (MCRE). It was tested for its activity with malonyl-CoA and for tartronyl-CoA with the assay described above for MCRCa.

Data set [4] has as its system glycolyl-CoA. Description: MCRCa coupled assay: glycolyl-CoA carboxylation by PCC coupled to two step reduction to glycerate by MCRCa (reactions 3#, 4#, 5), HPLC-hrMS and NADPH absorption. It is filed as biochemical. Particulars: tartronyl-CoA produced by PCCMe_D407I_Y143H. The procedure:
In addition to the above mentioned assays also another assay was performed in which the formation of tartronyl-CoA from glycolyl-CoA (reaction 3#) by the PCCMe_D407I_Y143H enzyme was directly coupled to its subsequent two step reduction via tartronate-semialdehyde (reaction 4#) to glycerate (reaction 5) by use of the purified MCRCa (Kröger et al., 2011, loc. cit.). The reaction mixture (300 μL) contained 200 mM NH4HCO3 buffer, pH 7.7, 5 mM MgCl2, 1 mM ATP, 0.4 mM NADPH, 43 μg PCCMe_D407I_Y143H, and 184 μg of MCRCa.
To determine whether MCRCa was able to catalyze the two step reduction of tartonyl-CoA to glycerate (via tartronic semialdehyde), samples of the reaction mixture were withdrawn after all of the NADPH was consumed. The samples were stopped with formic acid (5% final concentration). The acidified samples were centrifuged at 4° C. and 17 000×g and the supernatants were analyzed by HPLC-hrMS.
The formation of glycerate was analyzed using an Agilent 6550 iFunnel Q-TOF LC-MS system equipped with an electrospray ionization source set to negative ionization mode. […]
LC-MS data were analyzed using MassHunter Qualitative Analysis software (Agilent). […] In such assays the tartronate semialdehyde can be covalently derivatized with phenylhydrazine to a phenylhydrazone, which can be detected by its absorbance at 324 nm and confirmed by its corresponding mass spectrum. […]

Data set [5] has as its system malonyl-CoA. The settings on record: 0.3 mM substrate, 37° C., Kröger et al. 2011; cited from earlier work.

Turning to `O=C(O)CO` [glycolate], the vmax in data set [1] came to 1.3 ± 0.07 U mg^−1. In the case of `CC(C)(COP(=O)(O)OP(=O)(O)OC[C@H]1O[C@@H](n2cnc3c(N)ncnc32)[C@H](O)[C@@H]1OP(=O)(O)O)[C@@H](O)C(=O)NCCC(=O)NCCSC(=O)CC(=O)O` [malonyl-CoA], the Km in data set [2] was 30 µM.

B1: MCRCa: malonyl-CoA reductase of Chloroflexus aurantiacus, NCBI accession no. AAS20429.1, SEQ ID NO: 8 (protein, listed as Chloroflexus aurantiacus)
chain: MSGTGRLAGKIALITGGAGNIGSELTRRFLAEGATVIISGRNRAKLTALAERMQAEAGVPAKRIDLEVMDGSDPVAVRAGIEAIVARHGQIDILVNNAGSAGAQRRLAEIPLTEAELGPGAEETLHASIANLLGMGWHLMRIAAPHMPVGSAVINVSTIFSRAEYYGRIPYVTPKAALNALSQLAARELGARGIRVNTIFPGPIESDRIRTVFQRMDQLKGRPEGDTAHHFLNTMRLCRANDQGALERRFPSVGDVADAAVFLASAESAALSGETIEVTHGMELPACSETSLLARTDLRTIDASGRTTLICAGDQIEEVMALTGMLRTCGSEVIIGFRSAAALAQFEQAVNESRRLAGADFTPPIALPLDPRDPATIDAVFDWGAGENTGGIHAAVILPATSHEPAPCVIEVDDERVLNFLADEITGTIVIASRLARYWQSQRLTPGARARGPRVIFLSNGADQNGNVYGRIQSAAIGQLIRVWRHEAELDYQRASAAGDHVLPPVWANQIVRFANRSLEGLEFACAWTAQLLHSQRHINEITLNIPANISATTGARSASVGWAESLIGLHLGKVALITGGSAGIGGQIGRLLALSGARVMLAARDRHKLEQMQAMIQSELAEVGYTDVEDRVHIAPGCDVSSEAQLADLVERTLSAFGTVDYLINNAGIAGVEEMVIDMPVEGWRHTLFANLISNYSLMRKLAPLMKKQGSGYILNVSSYFGGEKDAAIPYPNRADYAVSKAGQRAMAEVFARFLGPEIQINAIAPGPVEGDRLRGTGERPGLFARRARLILENKRLNELHAALIAAARTDERSMHELVELLLPNDVAALEQNPAAPTALRELARRFRSEGDPAASSSSALLNRSIAAKLLARLHNGGYVLPADIFANLPNPPDPFFTRAQIDREARKVRDGIMGMLYLQRMPTEFDVAMATVYYLADRNVSGETFHPSGGLRYERTPTGGELFGLPSPERLAELVGSTVYLIGEHLTEHLNLLARAYLERYGARQVVMIVETETGAETMRRLLHDHVEAGRLMTIVAGDQIEAAIDQAITRYGRPGPVVCTPFRPLPTVPLVGRKDSDWSTVLSEAEFAELCEHQLTHHFRVARKIALSDGASLALVTPETTATSTTEQFALANFIKTTLHAFTATIGVESERTAQRILINQVDLTRRARAEEPRDPHERQQELERFIEAVLLVTAPLPPEADTRYAGRIHRGRAITV
modifications: [CDS]1..3663 from SEQ ID NO 7
As to B1, in data set [3], the “specific activity with tartronyl-CoA” value is reported as 0.6 U mg^−1. Besides, in data set [4], the “reduction of tartronyl-CoA to glycerate (HPLC-hrMS)” value is on record as “able to reduce the tartronyl-CoA, produced by PCCMe_D407I_Y143H, to glycerate”. Besides, in data set [5], the “specific activity with malonyl-CoA” value is “approximately 7 U mg^−1”.

The values are drawn from patent US10781456B2, “Carbon-neutral and carbon-positive photorespiration bypass routes supporting higher photosynthetic rate and yield” (Max-Planck-Gesellschaft zur Förderung der Wissenschaften …, priority 2015, dated 2020).
